Laboratory results published in paper doi:10.1101/2024.08.23.608890 (bioRxiv, 2024).

Target: T1, Paeniclostridium sordellii lethal toxin TcsL, receptor binding domain (RBD) (Paeniclostridium sordellii, UniProt Q46342)
T1 sequence: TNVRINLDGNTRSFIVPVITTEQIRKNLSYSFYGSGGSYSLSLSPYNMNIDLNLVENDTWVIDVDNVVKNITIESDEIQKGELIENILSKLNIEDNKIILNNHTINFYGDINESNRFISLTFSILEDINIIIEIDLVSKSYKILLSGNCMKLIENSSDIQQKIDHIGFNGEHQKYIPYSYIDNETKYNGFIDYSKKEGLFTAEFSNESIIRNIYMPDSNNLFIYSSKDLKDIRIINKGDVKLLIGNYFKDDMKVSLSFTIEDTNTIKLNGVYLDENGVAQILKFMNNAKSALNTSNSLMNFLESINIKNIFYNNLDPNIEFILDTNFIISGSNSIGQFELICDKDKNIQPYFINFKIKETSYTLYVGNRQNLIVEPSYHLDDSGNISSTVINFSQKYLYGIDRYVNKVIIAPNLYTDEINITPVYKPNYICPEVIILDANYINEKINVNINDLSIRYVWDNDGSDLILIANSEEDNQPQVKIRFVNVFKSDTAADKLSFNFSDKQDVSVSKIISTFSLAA
Experiment: SPR

B1: B4, ProteinMPNN-optimized de novo designed TcsL-binding miniprotein (designed binder)
chain: MSGTEEIIKEIKKMKEKGEKASSIIDLLKKAGYSEIAKKAELAALKSENMTEAAAEKAIEELK
In the case of B1, the Kd is reported as 0.057 nM.
